According to the nanobody polyreactivity screen of Harvey et al. (2022):

Assay: yeast display, Sf9 membrane polyspecificity reagent, FACS + sequencing; frameworks hold sequencing errors
How it was run: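 A nanobody's polyreactivity label depends on the gate it was sorted from. Yeast display cells were stained with 10% biotinylated, detergent-solubilized Sf9 membrane reagent for 1 hour at 4 °C, enriched on streptavidin microbeads and sorted by FACS. The low and high (top ~1%) gates were set on anti-HA fluorescence for expression and streptavidin fluorescence for reagent binding.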

Row | Sequence | polyreactivity (PSR sort gate)
1 | QVQLVESGGGLVQAGGSLRLSCAASGGTFNGYALGWYRQAPGKERELVAAITSGGGSTYADSVKGRFTISRDNAKNTVYLQMNSLKPEDTAVYYCNADQWDEWFWDYDYWGQGTQVTVSS | low polyreactivity
2 | QVQLVEAGGGLVQAGGSLRLSCAASGRTFPVNPMGGYRQAPGKERELVAAISKRAGSTYYADSVKGRFTISRDNAKNTVYLQMNSLKPEDTAVYYCAARWRVIYAEFDYWGQGTQVTVSS | high polyreactivity
3 | QVQLVESGGGLVQAGGSLRLSCAASGRIFGYYAMGWYRQAPGKERELVAAIRRSGGSTYADSVKGRFTISRDNAKNTVYLQMNSLKPEDTAVYYCAAGHYWFTKGYHTLYDMDYWGQGTQVTVSS | high polyreactivity
4 | QVQLVESGGGLVQAGGSLRLSCAASGRTIRWNAMGWYRQAPGKERELVAAIDSVDNTYYADSVNGRFTISRDNAKNTVYFQMNSLKPEDTAVYYCARDTYWQVQMDYWGQGTQVTVSS | low polyreactivity
5 | QVQLVESGGGLVQAGGSLRLSCAASGITIKRYPMGWYRQAPGKEREFVATSSQSGTSTYYADSVKGRFTISRDNAKYTVYLQLNSLKPEDTAVYYCAADYIGYWYGYYSWGQGTQVTVSS | low polyreactivity
6 | QVQLVESGGGLVQAGGSLRLSCAASGFIFAYNAMGWYRQAPGKERELVAAITGSGTRTYYADSVKGRFTISRDKAKNTVYLQMYSLKPEDTAVYYCAARFPRDTYYYWGQGTQVTVSS | high polyreactivity
7 | QVQLVESGGGLVQAGGSLRLSCAASGYIFPSNTMGWSIQAPGKERELVATISRSGVSTYYADSVKGRFTISRDYAKNTVYLHMYSLKPDDTAVYYCAASTVYYYRSKWLSSFDYWGQGTQVTVSS | low polyreactivity
8 | QVQLVESGGGLVQAGGSLRLSCADSGSIFAYYAMGWYRQAPGKERELVADITSSGGITYYADSVKGRFTISRDNAKNTVYLQMNSLKPEDTAVYYCNADSLAIVGGSYPYDYWGQGTQVTVSS | low polyreactivity
9 | QVQLVESGGGLVQAGGSLRLSCAASGFTFVYYAMGWYRQAPGKERELVPAISWNGGSTYYADSVKGRFTISRDNAKNTVYLQMNCLKPEDTAVYYCAAEYSYRLLQTFYYPYGYWGQGTQVTVSS | high polyreactivity
10 | QVQLVESGGGLVQAGGSLRLSCAASGFTFDLYAMGWYRQAPGKERELVAAISWSGGSTRYADSVKGRFTISRDNAKNTVYLQMNSLKPADSAVYYCARQPRLYFKGKLYGYWGQGTHVTVSS | high polyreactivity
11 | QVQLVESGGGLVQAGGSLRLSSAASGSIFITYAMGWYRQAPGKERELVAAIRDSGDRTYYADSVKGRFTISRDNAKNTVYLQMNSLKPEDTAVYYCNARWQEPLKYDYWGQGTQVTVSS | low polyreactivity
12 | QVQHVESGGGLVQAGGSLRLSCAASGSTFKFYTMGWYRQAPGKERELVAGSTRAGSTNYADSVKGRFTISRDNAKNTVYLQMNSLKPEDTAVYYCNAYIWIYGCDYWGQGTQVTVSS | high polyreactivity
13 | QVQLVESGGGLVQAGGSLRLSCAASGFTFKGYTMGWYRQAPGKERELVAAISRSGGRTYYADSVKGRFTISRDNAKNTVYLQMNSLKPEDTAVYYCAAVIIGGHDYWGQGTQVTVSS | high polyreactivity
14 | QVQLVESGGGLVQAGGSLRLSCAASGLIFYPYAMGWYRQAPGKERELVAAISSGGSTNYADSVKGRFTISRDNAKNTVYLQMNSLKPEDTAVYYCAKRYPSFRGYGSFRYSGRKYWGQGTQVTVSS | high polyreactivity
15 | QVQLVESGGGLVQAGGSLRLSCAASGRIFYENAMGWYRQAPGKDRELVAAISGSGGSTYYADSVKGRFTISRDNAKNTVYLQMNSLKPEDTAVYYCNAYRRVPGYDYWGQGTQVTVSS | high polyreactivity
16 | QVQLVESGGGLVQAGGSLRLSCAASGRTFTRYAMGWYRQAPGKERELVASISNGGNTYYADSVKGRFTISRDYAKNTVYLQMNSLKPEDTAVYYCAAKWKNSRPDWRGYWGQGTQVTVSS | high polyreactivity
17 | QVQLVESGGGLVQAGGSLRLSCAASGFTFAYNAMGWYRQAPGKERELVAAITVSGGRTYYADSVKGRFTISRDNAKNTVYLQMNSLKPEDTAVYYCAATVRVRTNSWMDYWGQGTQVTVSS | low polyreactivity
